In patent US20070020717A1 one finds EC50 data, which are given here for one molecule.

Common to all, as to settings: chains peptide; modification not given
Test [1] addresses T1, GST-PDZ fusion protein, PDZ domain of MAST2 (Accession no. AB047005), Q6P0Q8.
T1 chain: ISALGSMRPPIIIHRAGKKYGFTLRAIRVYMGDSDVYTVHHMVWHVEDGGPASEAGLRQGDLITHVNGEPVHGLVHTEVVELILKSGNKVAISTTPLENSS
Put plainly: ELISA (G Assay). In general terms: ELISA stands for enzyme-linked immunosorbent assay.

Test [2] addresses T2, GST-PDZ fusion protein, PDZ domain of SHANK1 (GID 7025450), D3YZU1.
T2 chain: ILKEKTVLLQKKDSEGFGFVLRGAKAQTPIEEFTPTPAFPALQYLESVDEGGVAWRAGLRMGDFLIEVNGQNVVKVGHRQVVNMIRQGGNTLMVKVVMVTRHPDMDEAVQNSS
Put plainly: ELISA.

Test [3] addresses T3, GST-PDZ fusion protein, PDZ domain of SHANK2 (GID 6049185), Q9UPX8.
T3 chain: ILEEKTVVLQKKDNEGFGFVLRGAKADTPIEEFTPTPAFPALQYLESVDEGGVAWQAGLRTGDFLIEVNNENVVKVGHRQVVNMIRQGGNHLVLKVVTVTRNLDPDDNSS
Put plainly: ELISA.

Broadly, the EC50 is the concentration that produces a half-maximal response. A higher EC50 goes with a need for much substance. On to RRRSGLDDINPTVLLKERSTEL [Peptide 1957], for which the EC50 came to 23.1 µM in test [1], 66.3 µM in test [2] and 62 µM in test [3].
